This data set can be described thus: amyloid nucleation score (Sup35N fusion, yeast selection) (log enrichment); library NNK1; higher = more nucleation; inactive = no reads after selection. An outline of the steps:
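Peptides of 20 random codons fused to Sup35N were expressed in psi-negative yeast, induced 24 hours with 100 μM copper sulfate, then grown 7 days at 30°C on medium lacking adenine and uracil. Input and output plasmid inserts were Illumina-sequenced. Nucleation score is the DiMSum log enrichment of output over input reads, centred on the mode score of non-aggregating sequences, excluding sequences with under 100 input reads. Random libraries had three technical output replicates.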

± gives the uncertainty stated by the source.

HTHESNRPHYYCGADCLPKD came in with an amyloid nucleation score of 2.71 ± 0.14. As for FCSYLFMLATTLHQAWFHF, the figure is 1.1 ± 0.72; as for ILGMFSTICDGWADVMH, 0.525 ± 0.36; as for FSTGNPWVD, -0.342 ± 0.8.

On to RHCPLAVFRKSPLLAIGKFG, for which the amyloid nucleation score is -0.685 ± 0.66.

In turn, TYRNS displayed an amyloid nucleation score of -0.891 ± 1.2. As for KRNRYTKGTHHTSFMNFYFC, the figure is 8.37 ± 0.066. Consider LNPCHWGAFLY, for which the amyloid nucleation score was 0.648 ± 0.67.

As for YLFGGSWDCGLYISGIPCWS, the amyloid nucleation score was 1 ± 0.48. For the substance YVGQGPGSLLTTGWVRYSL, the amyloid nucleation score is -0.137 ± 0.6. In the case of YLIDSSTPDFR it was 0.314 ± 0.3; in that of CDKKWIASQSMVGRRTMV, “inactive”.

FIVHANWQSFYFLLRLMVF had an amyloid nucleation score of -0.109 ± 1. As to YSESVCSLLPQYSPVHPLFT, the amyloid nucleation score was found to be 0.891 ± 0.97. As for ICLIAWGQ, the figure is 1.66 ± 0.41; as for SWCNAYPQWWVRSLSMPS, -0.236 ± 0.55. As for RSSRAPWRSSCGGMF, the figure is -0.494 ± 0.48; as for WCVFAFMKSQQCK, -0.112 ± 0.22. In the case of LASLDLCVISLMNNHVDRTD it was 0.94 ± 0.29; in that of GGAHSY, 0.233 ± 0.5; in that of TWIVEELFIGDRLALREGFR, 0.406 ± 0.63. As for SKAWNRAGELVVSCTMVS, the amyloid nucleation score entry is “inactive”. Turning to WGMCFAVPNISTGLNNYTMP, the amyloid nucleation score was -0.234 ± 0.64.

Turning to IPSGTVF, the amyloid nucleation score was determined as 0.34 ± 0.9. In the case of SCDMYQYEIV it was “inactive”; in that of IVMFVGFCGENKLAWDSRRK, 5.03 ± 0.05. As for IEFLAILLVAAMVQ, the figure is -0.345 ± 1.2. In the case of NRCRDCREVYIKFPTWAWSW it was -0.253 ± 0.43; in that of PKFAHILTHGVSHMQWTVVK, 0.06 ± 0.35. Substance LFRDACLGMR yielded an amyloid nucleation score of -0.494 ± 0.48. On to ANGILV, for which the amyloid nucleation score worked out at 0.499 ± 0.28. As for DSCEW, the figure is -0.062 ± 0.58; as for YKSSILPTEFGFACKPWGHL, 0.3 ± 0.55; as for GGFFRHGEIDMYRCSSEWFL, 0.77 ± 0.97.

For FNFCHE, the amyloid nucleation score was -0.392 ± 0.6. In the case of GVHRWVRSARLEAVHFGAGW it was 1.45 ± 0.84. In turn, HTTSICVRELPDQEVWTAVN returned an amyloid nucleation score of 0.109 ± 0.54. Take DYRGTPNSWMIFMTPRGSLI: the amyloid nucleation score is -0.004 ± 1.1. In the case of YIHDQIIALFKQDLFSGSLH it was 0.961 ± 0.69. IFEIAESDLVYDHFSHYFKR: the amyloid nucleation score was -0.033 ± 0.67. In the case of KFIVVS it was 0.507 ± 0.62; in that of CHSHDVCRGMLT, -0.135 ± 0.38. WRICLQCRAYPLRTTGGQRQ gave an amyloid nucleation score of 0.444 ± 0.69. Consider MVIPFFLSSLLSL, for which the amyloid nucleation score is -0.835 ± 0.7.

As for TAFVILLDHGGCDSRVIYEG, the amyloid nucleation score amounted to 0.043 ± 0.69.

Consider SVWVENLEFIWRYLPSSVYP, for which the amyloid nucleation score turned out to be 0.076 ± 0.3.

SFIMSNS had an amyloid nucleation score of 0.075 ± 0.41. For the substance DGIRSWENSMVIYGI, the amyloid nucleation score was -0.091 ± 0.4. As for YILSSLPFRHLLGVNICFTA, the figure is -0.364 ± 0.31; as for YFSTRKYTSKGYCVRTLFAY, -0.406 ± 0.27; as for SATTIFFRYSKIREFRLVFG, “inactive”. In the case of GSGNVRL, the amyloid nucleation score was -1.61 ± 2.4. As to LKRDSFWVLIKWTRLDMGVS, the amyloid nucleation score worked out at 0.056 ± 0.37. As for HSNIRMCKAECSRGELH, the figure is 0.812 ± 0.61; as for GVADMAVRGQCSHYSVAWST, -1.07 ± 0.82.

EPIVLTVCCFSPKDVSQDLN showed an amyloid nucleation score of 0.749 ± 0.56. For FRDCLLVRYLCNVLTGDCTH, the amyloid nucleation score amounted to 1.94 ± 0.52. In the case of RCVKASLYDGEYMKLMDGVM it was -0.407 ± 0.45.

For GNIFWRMLWFVGYEKGSLLF, the amyloid nucleation score was -0.022 ± 0.36. In turn, SVCPKINLLNFVWNYYAPTA registered an amyloid nucleation score of 6.869 ± 0.064. As for GVCWRDYGLEAGTGAQVQQC, the figure is 3.03 ± 0.15. Take DNQVLCYECRGYWMQTVHVL: the amyloid nucleation score is 0.069 ± 0.97. For KFGDPSRAAILNMSGSISDK, the amyloid nucleation score was -0.189 ± 0.46. As for IFSGWCVRVFCSFLKHNCLN, the figure is -0.408 ± 0.47. In the case of DRRRNCYFIRLWQGLGYIS it was “inactive”; in that of MEMLGGNRL, 1.23 ± 0.36; in that of ACELGFLPKHRHRGLVFVEG, -0.725 ± 0.8.

With KVPKRKITNFRGMSGFSRYR, the amyloid nucleation score is 0.985 ± 0.98. DLSRDAIRSKSEGAVR came in with an amyloid nucleation score of -1.24 ± 1.7. As to KEFMRWHQTPRFVKKTHVRG, the amyloid nucleation score is -0.834 ± 1.4. In the case of FVSWLFVS it was -1.4 ± 0.98. With VMTRNTCVQVGLEGTSQFAG, the amyloid nucleation score came out at 0.435 ± 0.26. In the case of PCWLQMSCR it was -0.148 ± 0.79; in that of LVSCDIVWWTAMFGLLARMF, 0.591 ± 0.37. The substance CEMKASGLKYVHRFNSIPVM yielded an amyloid nucleation score of 0.984 ± 0.57.

In turn, VITSVGWMLVYENQFTNLHL returned an amyloid nucleation score of 6.855 ± 0.048. With EESSPEAWSVRERTAGVFVF, the amyloid nucleation score was -0.09 ± 0.86. As for IKGPLLFIFSESVLAFDETS, the figure is 3.6 ± 0.073. As for VYESGRCNLACRMFARDGCS, the figure is -1.38 ± 2.4; as for WLPMPSV, 0.411 ± 0.47. As for WHRDVGFTLISVTPFCMMGG, the figure is 1.54 ± 0.33; as for THARMKFLWFARF, -0.282 ± 0.83. As for NNLWCSFS, the amyloid nucleation score was -0.577 ± 0.43. Consider HEIKIRHFIRMTGSGSYQSL, for which the amyloid nucleation score was found to be 0.176 ± 0.29. As for KSVFIYLGMISLVG, the figure is 0.352 ± 0.88; as for YPLFCNDHVGSSTLRRR, -0.065 ± 0.35. In the case of RMIDMGTDTVFCLMSFARIN it was -0.354 ± 0.22. Regarding PFTRVGLDMYLDDSVKKGWD, the amyloid nucleation score was -0.528 ± 0.36. With GFMVDERSTIVEDLPRSADV, the amyloid nucleation score is -0.913 ± 0.34. Turning to GFLVSEGFLIVGLLIRVRGL, the amyloid nucleation score came to 0.641 ± 0.37. ASAFFRVWSLNKIICYEVSD had an amyloid nucleation score of 4.56 ± 0.051. KSVVSFMTFPSLQEHKVVLI came in with an amyloid nucleation score of 0.33 ± 0.53.

NTLKNCCLYIAVRCNAP registered an amyloid nucleation score of -0.974 ± 1.2.

As for IKALMIC, the amyloid nucleation score result was “inactive”.

In the case of IIPPV, the amyloid nucleation score entry is “inactive”.

The substance GDRKACSVRCRHATDKICAD came in with an amyloid nucleation score of -0.309 ± 0.57. Substance FMSEDESYVCYRWGWYDRIF registered an amyloid nucleation score of -0.919 ± 1. AWIDCVSTNTTLDIPSLGP came in with an amyloid nucleation score of 0.402 ± 0.24. Regarding TMVCFVLDNCICKSLVTTCL, the amyloid nucleation score result is “inactive”. In the case of SWCSCQV it was 1.16 ± 0.6; in that of GYIVYDIMYAIFYKQTVYLI, “inactive”; in that of KLEMARAIKFFGYDTLETAF, 1.1 ± 0.71. In the case of GYKMAYNFCDEKEGLNWRVG it was -0.257 ± 0.52; in that of YMNIVDVLAWGDRWVLLVWK, 0.425 ± 0.48.

MLACDVISPFCYVNWKRLCR: the amyloid nucleation score is 2.43 ± 0.15.

IYCVGDFVP came in with an amyloid nucleation score of -0.026 ± 0.35. As for HNRMMMRADVTAVDTRYFTS, the figure is -1.57 ± 1.3. In the case of EGMAARSWDCMYVWG it was 0.35 ± 0.42; in that of SESSYGSSSRTTESSVCVSG, -0.008 ± 0.52; in that of YVSIYGQWVSSSCWTRRAYN, 0.415 ± 0.32. Take SVDIAINALS: the amyloid nucleation score stood at 0.492 ± 0.41. In the case of SWLGPRWSFWFWFFIWSSGL it was 1.37 ± 0.74; in that of YWNRRYIGTPLNM, -1.73 ± 2.7; in that of EIVSIS, -0.42 ± 1.2. As for TLSIFVLRIGARYNMLSLIQ, the amyloid nucleation score is 0.095 ± 0.59.

INYFRWGDIFVYSNSKSSRL registered an amyloid nucleation score of 0.511 ± 0.17. Consider YRFQTSISNCYSAERDWGT, for which the amyloid nucleation score amounted to 1.37 ± 0.42.

As to VIRYSIKSCFLYIKTYQGYM, the amyloid nucleation score was -0.907 ± 0.43. Regarding YHDVGSAVRMLYQMGPKRVF, the amyloid nucleation score is -0.442 ± 1.4.

Take FLLAPTLL: the amyloid nucleation score is -0.367 ± 1.

With SPCLLF, the amyloid nucleation score was -0.637 ± 2.1. On to KAFWSLCYVERGRWYGAVNA, for which the amyloid nucleation score was found to be 0.128 ± 1.

Consider DIVRWLCPHRTK, for which the amyloid nucleation score stood at 1.23 ± 0.93. As for LISFSCVVNSLAEPRYIFLS, the amyloid nucleation score was determined as 1.13 ± 0.88.

In the case of RFISVMSLSLLNNNFIEAHV, the amyloid nucleation score is 0.55 ± 0.6.

As for NDNSVTILVCARVSTNGIFD, the amyloid nucleation score was 3.38 ± 0.11.

Take GLGCYVKNKTHESYARSTAH: the amyloid nucleation score was -0.671 ± 0.56. As for VRTPRRCCSY, the figure is -0.096 ± 0.28; as for HTQDYEEFIFCLM, “inactive”; as for HKSIMAYRN, 0.677 ± 0.68. As for PTFAADSEGHS, the figure is 0.085 ± 0.63.

PGYSVPFSCGDQVPQQLPIR came in with an amyloid nucleation score of -0.538 ± 2.1. In the case of VDVQGICRHISFNIAGA it was -0.035 ± 0.72; in that of SFNNMANMAYYRVRGVLVL, -0.438 ± 0.6; in that of KCSSLLSHMWLCITLVTVLA, 0.357 ± 0.57. As for WDATLNKITYKRSLVGSVSK, the figure is 0.275 ± 0.58.

With ASTSYPWKSGVMVGGKLKNP, the amyloid nucleation score is 0.287 ± 0.53.

In the case of KELFLMPDGEPFMG, the amyloid nucleation score stood at 0.079 ± 0.61. In turn, CNFMVSYRISFMLRLIQYYV displayed an amyloid nucleation score of -0.938 ± 0.31. In turn, LIYFKGSS had an amyloid nucleation score of 0.399 ± 0.79.
